Target: AMDHD1 (UniProt Q96NU7)
Assay: co-immunoprecipitation, western blot
Conditions: sites S464,S465,S467

Row | binding against the reference (reference: wild-type SMAD3) | binding against the reference (reference: wild-type SMAD2) | Substance
1 | lost | – | SMAD3 (from UniProt P84022) SMAD3-A (three C-terminal serines to alanine)
2 | – | lost | SMAD2 (from UniProt Q15796) SMAD2-A (S464A/S465A/S467A)
